test: yeast display, Sf9 membrane polyspecificity reagent, FACS + sequencing; frameworks hold sequencing errors
Procedure, shortened: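 Genes from sorted yeast were amplified by colony PCR, read by MiSeq 2 × 250 sequencing and filtered on CDR length. These cells carried a synthetic nanobody library in Saccharomyces cerevisiae BJ5465 and were sorted by FACS into low and high (top ~1%) gates on anti-HA and streptavidin fluorescence. Polyreactivity is labelled according to the gate of origin.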

Sequence	polyreactivity (PSR sort gate)
QDQLVESGGGLVQAGGSLRLSCAASGSTFRWYAMGWYRQAPGKERELVAAIRRIGSRTYADSVKGRFTISRDNAKNTVYLQMNSLKPEDTAVYYCATRYKYTGYDYWGQGTQVTVTS	high polyreactivity
QVQLVESGGGLVQAGGSLRLSCAASGFIFGYNAMGWYRQAPGKESEFVAAISSSGASKYYADSVKGRFTISRDNAKNTVYLQMNSLKPEDTAVYYCAARYSWARYASTMGYWGQGTQVTVSS	high polyreactivity
KVQHVESGGGLVQAGGSLRLSCAASGLIFYRYAMGWYRQAPGKERELVAAISRSGSSTYYADSVKGRFTISRDNAKNTVYLQMNSLKPEDTAVYYCNAGYGWIWDDRGYWGQGSQVTVSS	high polyreactivity
QFQLVESGGGLVQAGGSLRLSCAASGFTFYPYAMGWSRQAPGKERELVAAITRSGTSTFYADSVKGRFTISRDNAKNTVYLQMNSLKPEDTAVYYCAKGYFFVGTDWESYYWGQGTQVTVSS	low polyreactivity
QVQLVESGGGLVQAGGSLRLSCAASGSTYGGNAMGWYRQAPGKERELVAAISRSGSRTYYADSVKGRFTISRDNAKNTVYLQMNSLKPEDTAVYYCAARRWVWTVRYNYWGQGTQVTVSS	high polyreactivity
QVQLVESGGGLVQAGGSLRLSCAASGRTLYFNAMAWYRQEPGKERELVADISIGGSTYYADSVKGRFTISRDNAKNTVYLQMNSLKPEDTAVYYLATDYLGGGKRYYYWGQGTQVTVSS	high polyreactivity
QVQHVESGGGLVQEGGSLRLSCGASGRTFSYYAMGCYRQPPGKEREMVAAIRATGTTTYYAVSVKGRFTISRDNAKITFYFQMNSLKQDDTAVYYCAARGSRYRSSGYEEWGQGTQVTVSS	high polyreactivity
QVQLVESGGGLVQAGGSLRLSCASSGNTFKYDAMGWYRQAPGKERELVAAITWNGARTYYADSVKGRFTISRDNANYTGYLQMNRLKAEVTAVYYCNARQGYRFDYWGQGTQVSVSS	high polyreactivity
QVQLVESGGGLVQAGGSLRLSCAASGFTFSQYAMGWYRQAPGKERELVAAITFSGDSTYYADSVKGRFTISRDNAKNTVYLQMNSLKPEDTAVYYCNADDWWGGYDYWGQGTQVTVSS	low polyreactivity
QVQLVESGGGLVQAGGSLRLSCAASGYIFYNAMGWYRQAPGKERELVAAISSSGGTTYYADSVKGRFTISRDNAKNTVFLQMNSLKPEDTAVYYCAATFRKRYPSRYDSWGQGTQVTVSS	low polyreactivity
QVQLVESGGGLVQAGGSLRLSCAASGSTFIAYAMGWYRQAPGKERELVAAITKSGGRTYYADSVKGRFTISRDNAKNTVYLQMNSLKPEDTAVYYCAKLVPVYSHPYAYDYWGQGTQVTVSS	high polyreactivity
QVQLVESGGGLVQAGGSLRLSCAASGSIFNRYTMGSYRQAPGKEREFVAAISSSGTSTYYADSVKGRFTISRDNAMNTVYLQMNSLKPEDTAVYYCAADYYRTPKSGSSGLDYWGQGTQVTVSS	low polyreactivity
QVQHVESVVGFVQAGASLRLSCASSVLILAQNTMGWYRQAPGKERELVAAISWRGGNTYYADSVKGRLTISRDNAKNTVYLKMNILKPEDTAVDYCAARRPRRIVDYDYWGQGTQVTVSS	high polyreactivity
QVQLVESGGGLVQAGGSLRLSCAASGFIFVKYAIGWYRTAPGKERELVAAITTSGTGTFYADSVKGRFTISRDNAKNTVYLQMNSLKPEDTAVYYCNALGHPGDDWGQGTQVTVSS	low polyreactivity
QVKLVESGRGLVQAGGSLRLSCAASGFTFRYYGMGWYRQAPGKERELVASITASGVSTSYADSVKGRFTISRDNAKNTVYLQMNSLKPEDTAVYYCNAVVGAWSLFDYWGQGTQVTVSS	high polyreactivity
QVQLVESGGGLVQAGGSLRLSFAASGITFTVYTMGWNRQAHGKVRELVPTINSSGSTYYADSVKGRFTISRDNAKNRVYLQMNSLKPEDTAVYYCAAEYWINRDLMDYWGQGTQVTVSS	high polyreactivity
QVQLVESGGGLVQAGGSLRLSCAASGRTFFWYVMGWYRKAPGKERELVATISYGGITYYADSVKGRFTISRDNAKNTVYLQMNSLKPEDTALYYCAAKPSRSLYYYWGQGTQVTVSS	high polyreactivity
QVQLVESGGGLVQAGGSLRLSCAASGSTFTANAMGWYRQAPGTERELVAAISRSGGSTYYADSVKGRFTISRDNAKYTVYLQLNSLKPEDTAVYYCAAECPLFSPPDGEDYWGQGTLVTVSS	low polyreactivity
QVQLVESGGGLVQAGGSLRLSCAASGRIFTDYAMGWYRQAPGKERELVAAINFSGGSTYYADSVKGRFTISRDNAKNTVYLQMHSLKPEDTAVYYCAAQGYYDDMYYWGQGTQVTESS	high polyreactivity
QVQLVESGGGLVQAGGSLRLSCAASGFIFGFYAMGGYRQAPGKERELVAAISWSGGSTYYADSVKGRFTISRDNAKNTVYLQMNSLKPEDTAVYYCAAYFYYLDDAVTYDYWGQGTQVTVSS	low polyreactivity
QVQLVESGGGLGQAGGSLRLSCAASGFIFTPYTMGWYRQAPGKERELVAAITDGSSTYYADSVKGRFTISRDNAKNTVYLQMNSLKQEDTAVYYCNDDGKPPYISWLYDYWGLGTQVTVSS	low polyreactivity

Sequence	polyreactivity (PSR sort gate)
QVQLVESGGGLVQAGGSLRLRCAASGSTFQRYAMGWYRQAPGKERELVAAITWSGGSTKYADSVKGRFTISRDNAKTTVYLQMNCLKPEDTAVYYCARTYLSSRWGQGTQVTVSS	low polyreactivity
QVQLVESVGGLVQAGGSLRLSCAASGSIFEWSAMGWYRQAPGKERELVADISSVGSTYYADSVKGRFTISRDNAKNTVYLQMNSLKPEDTAVYYCAADGTWVRSPHFYYWGQGTQVTVSS	low polyreactivity
QVQLVESGGGLVQAGGSLRLSCAASGSTFYRYAIRWYRQAPGKERELVAAISKRGGSTYYADSVKGRFTISRDNAKNTVYLQMNSLKPEDTAVYYCAADPFHYGGGDDYWGQGTQVTVSS	high polyreactivity
QVQLVESGGGLVQAGGSLRLTCAASGYIFYTYAMGWYRQAPGKERELVAGITGSGGSTYYADSVKGRFTISRDNAKNTVYLQMNSLKPEDTAVYYCAKDIYQIGYRRYDSWGQGTQVTVSS	low polyreactivity
QVQLVESGGGLVQAGGSLRLSCAASGNIFAPNAMGWYRQAPGKERELVAAISRSGGSTHYADSVKGRFTISRDNAKNTVYLQMNSLKPEDTAVYYCAAGWYGRYTSKMGYWGQGTQVTVSS	high polyreactivity
QVQLVESGGGLVQAGGSLRLSCAASGFIFVANAMGWYRQAPGKERELVADINRGSTYYADSVKGRFTISRDNAKNTVYLQMNSLKPEDTAVYYCNRVYTQTYNPWGFEYWGQGTQVTVSS	high polyreactivity
QVQLVESGGGLVQAGGSLRLSCAASGRIFWRYAMGWYRQAPGKERELVAAITWSVGSTYYADSVKGRFTISRDNAKNTVYLLMNSLKPEDTAVYYCATDVKNVRYRYRYDYWGQGTQVTVSS	low polyreactivity
QVQLVESGGGLVQAGGSLRLICAASGSTFWRYAMGWYRQAPGKERELVAAITGNGGRTYYADSVKGRFTISRDNAKNTVYLQMNSLKPEDTAVYYCAARYRGGVSVGYWGQGTQVTVSS	high polyreactivity
QVQLVESGGGLVQAGGSLRLSCAASGFIFSNNAMGWYRQAPGKERELVAAISGRGGSTYYADSVKGRFTISRDNAKNTVYLQMNSLKPEDTAVYYCNALYTYSYSRFDYWGEGTQVTVSS	low polyreactivity
QVQLVESGGGLVQAGGSLRLSCAASGSIFKYYAMAWYRQSPGNERELVAAISSGGRTYYADSVKGRFTISRDNAKNTVYLQMNSLKPEDTAVYYCNRVGTYHSYDYWGQGTQVTVSS	high polyreactivity
QVQLVESGGGLVHDGRSLRLSCSASRRTYRLYAMGLYRQAPGQERELVAAITRGGRTNYADSVMGRFTISRDNAKNTVYLQMNSLKPEDTAVYYCADRYVERHTDYYYWGQGSQVTVSS	low polyreactivity
QVQLVESGGGLVQAGGSLRLSCAASGTFSFYAMGWYRQAPGKERELVAAITRSSSRTYYADSVKGRFTISRDNAKNTVYLQMNSLKPEDTAVYYCRAKQVNRFDYWGQGTQVTVSS	high polyreactivity
QVQLVESGGGLVQAGGSLRLSCAASGRTFYSYSMGWYRQAPGKERELVAAINRSGGRTYYADSVKGRFTISRDNAKNTVYLQMNSLKPEDTAVYYCNALEYYRYDYWGQGTQVTVSS	high polyreactivity
QVQLVESGAGLVQAGGSLRLTCAASARILGAYAMGWYRQAPGKERELVASISSGGRTYYADSVKGRFTISRDNAKNTVYLQMNSLKPEDTAVYYCNRDRNSGFYRRYGYWGQGSQVTVSS	high polyreactivity
QVQLVESGGGLVQAGGSLRLSCAASGIIFPRYTMGSYRQAPGKERELVAAISWRGGRTYYADSVKGRFTISRDNAKNTVYLQMNSLKPEDTAVYYCAAEFVHSYSYAYDYWGQGTQVTVSS	high polyreactivity
QVQLVESGGGLVQAGGSLRLSCAASGFTFKSYTMAWYRHAPGKERELVANISRRGGSTYYADSVKGRFTLSRDNAKNTVYLQMNSLKPEDTAVYYCAADAYGFLDTTYRYFYWGQGSQVTVSS	high polyreactivity
QVQLVESGGGLVQAGGSLRLSCAASGSTFYEYAMGWYRQAPGKERELVAAIDERGGNTYYADSVKGRFTISRDNAKNTVYLQMNSLKPEVTAVYYCAADAYPFYQSYYPFEYWGQGTQVTVSS	low polyreactivity
QVQLVESGGGLVQAGGSLRLSCAASGSTFVHYAMGWYRQAPGKERELVAAINDGGSTHYADSVKGRFTISRDNAKNTVYLQMNSLKPEDTAVYYCAAEYVWYRYPDYWGAYDYWGQGTQVTVSS	low polyreactivity
QVQLVESGGGLVQAGGRLRLSCEASGNIFGYYAMGWSRQAPGKERELVAAITRSGSSTYYADSVKGRFTISRDNAKNNVFLQMNSLKPEDTAVYYCSADNFYQAYGYWGQGTQVTVSS	low polyreactivity
QVQLVESGGGLVQAGGSLRLSCAASGSTLVGNAMGWYRQAPGKERELVAAISSSGTSTYYADSVKGRFTISRDNAKNTVYLQMNSLKPEDTAVYYCAAYVYGVGMDYWGQGTQVTVSS	high polyreactivity
